Experimental findings from doi:10.1101/2025.05.27.656346 are described below.

The target in the test is β-gal 4-domain fragment 1-725 (E. coli). Put plainly: negative-stain EM.

For “β-gal 4-domain fragment 1-725 (domain or fragment)”, the stoichiometry N was 4.
